# Data: the supplement of paper PMC10126150
# ± gives the standard deviation of the averaged measurements.
# Tested on: ATP
# Experiment: switch fluorescence ratio, 500 uM ATP over buffer (Cy3 cluster intensity, sum of 5 cycles each) (fold (ratio)); higher = stronger signal-on switching upon ATP binding; sequences stand for … in TCGTCGGCAGCGTCAGATGTGTATAAGAGACAGTTTTTTTTTTTTTTTTTTTTTTTTT…TC
# Conditions: aptamer strand: ATP DNA aptamer (quencher-CACCTGGGGGAGTATTGCGGAGGAAGG + anchor), 100 nM annealed; ATP concentration: 500 uM
# In short: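 Between each of five buffer/ATP cycles, the flow-cell was stripped with NaOH and re-annealed. Each cycle imaged Cy3-labelled switching-strand clusters, annealed to 100 nM quencher-labelled ATP aptamer on a modified Illumina MiSeq flow-cell, first in selection buffer and then after 15 min with 500 uM ATP at 22 °C. The fluorescence ratio is summed target-cycle over summed buffer-cycle Cy3 intensity per cluster, averaged per switch-domain sequence, with clusters outside 100-1000 RFU excluded.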
# 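Also: ATP exposure 15 min at 22 °C before imaging.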
row,Sequence,switch fluorescence ratio
1,TGGATTTACT,1.01 ± 0.031
2,TGGATTTTTT,0.996 ± 0.036
3,TGGCAGGAAT,0.9766 ± 0.0014
4,TGGCAGGGAT,1.02 ± 0.067
5,TGGCAGGTTT,1.015 ± 0.01
6,TGGCATGTGT,0.986 ± 0.033
7,TGGCCGGGGG,1 ± 0.02
8,TGGCCTAATG,0.965 ± 0.013
9,TGGCCTGGGG,0.979 ± 0.025
10,TGGCGAAGAG,0.999 ± 0.011
11,TGGCGCACAA,1.07 ± 0.013
12,TGGCGCCCGT,1.08 ± 0.11
13,TGGCGCCCTG,0.998 ± 0.069
14,TGGCGGAAAG,0.977 ± 0.025
15,TGGCGGAATT,1.02 ± 0.02
16,TGGCGGCCGA,0.996 ± 0.021
17,TGGCGGGATA,1.009 ± 0.0013
18,TGGCGGGGAG,0.998 ± 0.021
19,TGGCGGGGGT,0.981 ± 0.012
20,TGGCGGTGAC,1.02 ± 0.01
21,TGGCGTAGTA,1.01 ± 0.051
22,TGGCGTCTTA,0.9875 ± 0.0033
23,TGGCGTTGTG,0.9928 ± 0.0017
24,TGGCTAGATA,0.973 ± 0.041
25,TGGCTATGCG,0.969 ± 0.029

row,Sequence,switch fluorescence ratio
1,TGGCTCAGTG,1.024 ± 0.0018
2,TGGCTGGTGT,1.02 ± 0.08
3,TGGCTGTCTT,0.97 ± 0.13
4,TGGCTTAACG,0.961 ± 0.0041
5,TGGCTTTTAA,1.013 ± 0.007
6,TGGGAAAATC,1.63 ± 0.81
7,TGGGAAAGGG,1.01 ± 0.036
8,TGGGAAATAG,0.9957 ± 0.0041
9,TGGGAAATGG,1 ± 0.024
10,TGGGAACCAG,0.999 ± 0.015
11,TGGGAACGCG,1.003 ± 0.0076
12,TGGGAAGAAT,0.99323 ± 0.00037
13,TGGGAAGACC,1.02 ± 0.025
14,TGGGAAGAGA,1.02 ± 0.018
15,TGGGAAGGGA,1.2 ± 0.37
16,TGGGAAGGGT,0.996 ± 0.059
17,TGGGAAGGTA,0.999 ± 0.029
18,TGGGAATATC,1.05 ± 0.028
19,TGGGACACAG,1.004 ± 0.007
20,TGGGACATGT,1.02 ± 0.019
21,TGGGACCGCG,1.03 ± 0.084
22,TGGGACGGTA,1 ± 0.022
23,TGGGAGACAA,0.9815 ± 0.001
24,TGGGAGCAGC,1.02 ± 0.038
25,TGGGAGCCTG,0.987 ± 0.015

row,Sequence,switch fluorescence ratio
1,TGGGAGGGAT,0.989 ± 0.021
2,TGGGAGGGGC,1.01 ± 0.021
3,TGGGAGTATT,0.9815 ± 0.0069
4,TGGGAGTCGC,0.97 ± 0.027
5,TGGGATAAAA,1.01 ± 0.044
6,TGGGATAACT,0.99 ± 0.038
7,TGGGATAGTT,1.024 ± 0.0069
8,TGGGATCGAG,0.9719 ± 0.0032
9,TGGGATCGTT,0.98 ± 0.015
10,TGGGATGCGT,0.988 ± 0.015
11,TGGGATGGGA,1 ± 0.024
12,TGGGATGTTT,0.982 ± 0.026
13,TGGGATTAGA,1.021 ± 0.008
14,TGGGATTATC,1.02 ± 0.027
15,TGGGATTCCC,1.01 ± 0.017
16,TGGGATTGAA,0.9806 ± 0.0079
17,TGGGCAGAAG,0.9744 ± 0.0053
18,TGGGCAGGAT,1.01 ± 0.041
19,TGGGCATTGG,1.01 ± 0.018
20,TGGGCGCAGT,0.986 ± 0.012
21,TGGGCGTTTA,1.04 ± 0.026
22,TGGGCTCTTT,1 ± 0.019
23,TGGGCTGCGG,0.974 ± 0.04
24,TGGGCTTATC,1.012 ± 0.0097
25,TGGGGAAACT,1.15 ± 0.23

row,Sequence,switch fluorescence ratio
1,TGGGGAACAA,1 ± 0.055
2,TGGGGAATAT,1.18 ± 0.38
3,TGGGGAATGG,1 ± 0.05
4,TGGGGACGTT,0.971 ± 0.056
5,TGGGGAGCAA,1.73 ± 0.074
6,TGGGGAGTGG,1.02 ± 0.065
7,TGGGGAGTTA,0.992 ± 0.021
8,TGGGGATCGT,0.982 ± 0.026
9,TGGGGATCTA,1.002 ± 0.006
10,TGGGGATCTG,0.985 ± 0.03
11,TGGGGATCTT,0.972 ± 0.057
12,TGGGGATGAT,1 ± 0.022
13,TGGGGATTAC,0.983 ± 0.012
14,TGGGGATTCC,1.01 ± 0.016
15,TGGGGATTGA,1 ± 0.03
16,TGGGGATTTC,1.1 ± 0.16
17,TGGGGATTTG,0.99 ± 0.032
18,TGGGGCCCGG,0.984 ± 0.019
19,TGGGGCCTGG,1.1 ± 0.23
20,TGGGGCCTGT,0.978 ± 0.023
21,TGGGGCGGGG,0.983 ± 0.018
22,TGGGGCGGTG,1.001 ± 0.0085
23,TGGGGCGTAT,1.04 ± 0.039
24,TGGGGCTACA,0.983 ± 0.056
25,TGGGGCTACC,1.06 ± 0.093
